# Laboratory results from US20230002496A1 (STAIDSON BEIJING BIOPHARMACEUTICALS, published 2023).
# T1: human GM-CSFRα, full length on cells (human, UniProt P15509 23-400)
# T1 sequence: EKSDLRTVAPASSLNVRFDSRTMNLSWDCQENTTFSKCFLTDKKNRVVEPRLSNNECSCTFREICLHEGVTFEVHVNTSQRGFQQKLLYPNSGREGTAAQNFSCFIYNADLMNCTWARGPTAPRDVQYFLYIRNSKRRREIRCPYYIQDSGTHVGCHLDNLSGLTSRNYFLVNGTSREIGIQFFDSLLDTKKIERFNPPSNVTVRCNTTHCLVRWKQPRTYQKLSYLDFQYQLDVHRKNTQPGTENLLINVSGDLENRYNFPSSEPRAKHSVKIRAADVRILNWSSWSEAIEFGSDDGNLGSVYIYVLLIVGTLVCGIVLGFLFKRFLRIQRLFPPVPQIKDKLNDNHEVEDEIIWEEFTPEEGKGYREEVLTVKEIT
# Molecular target: T1, human GM-CSFRα, full length on cells
# Experiment: cell-based or functional assay
row,Binder,"IC50, TF-1 cell proliferation [µg/mL]"
1,"E35-scFv LY32N (scFv, V domains shown) VH: QMQLVQSGAEVKKPGASVKVSCKVSGYTLTELSIHWVRQAPGKGLEWMGGFDPEDGETIYAQKFQGRVTMTGDTSTDTAYLELSSLRSEDTALYYCATGRYTSLATTYGFDYWGQGTLVTVSS VL: EIVMTQSPATLSLSPGERATLSCRASQSVSSNLAWYQQKPGQAPRLLIYGASSRATGIPDRFSGSGSGTDFTLTISRLEPEDFAVYYCQQYDNWPYTFGQGTKLEIK",2.05
2,"E35-scFv LY32R (scFv, V domains shown) VH: QMQLVQSGAEVKKPGASVKVSCKVSGYTLTELSIHWVRQAPGKGLEWMGGFDPEDGETIYAQKFQGRVTMTGDTSTDTAYLELSSLRSEDTALYYCATGRYTSLATTYGFDYWGQGTLVTVSS VL: EIVMTQSPATLSLSPGERATLSCRASQSVSSRLAWYQQKPGQAPRLLIYGASSRATGIPDRFSGSGSGTDFTLTISRLEPEDFAVYYCQQYDNWPYTFGQGTKLEIK",3.12
3,"E35-scFv LY32E (scFv, V domains shown) VH: QMQLVQSGAEVKKPGASVKVSCKVSGYTLTELSIHWVRQAPGKGLEWMGGFDPEDGETIYAQKFQGRVTMTGDTSTDTAYLELSSLRSEDTALYYCATGRYTSLATTYGFDYWGQGTLVTVSS VL: EIVMTQSPATLSLSPGERATLSCRASQSVSSELAWYQQKPGQAPRLLIYGASSRATGIPDRFSGSGSGTDFTLTISRLEPEDFAVYYCQQYDNWPYTFGQGTKLEIK",3.75
4,"E35-scFv LY32P (scFv, V domains shown) VH: QMQLVQSGAEVKKPGASVKVSCKVSGYTLTELSIHWVRQAPGKGLEWMGGFDPEDGETIYAQKFQGRVTMTGDTSTDTAYLELSSLRSEDTALYYCATGRYTSLATTYGFDYWGQGTLVTVSS VL: EIVMTQSPATLSLSPGERATLSCRASQSVSSPLAWYQQKPGQAPRLLIYGASSRATGIPDRFSGSGSGTDFTLTISRLEPEDFAVYYCQQYDNWPYTFGQGTKLEIK",5.15
5,"E35-scFv LY32K (scFv, V domains shown) VH: QMQLVQSGAEVKKPGASVKVSCKVSGYTLTELSIHWVRQAPGKGLEWMGGFDPEDGETIYAQKFQGRVTMTGDTSTDTAYLELSSLRSEDTALYYCATGRYTSLATTYGFDYWGQGTLVTVSS VL: EIVMTQSPATLSLSPGERATLSCRASQSVSSKLAWYQQKPGQAPRLLIYGASSRATGIPDRFSGSGSGTDFTLTISRLEPEDFAVYYCQQYDNWPYTFGQGTKLEIK",9.6
6,"E35-scFv LS52A (scFv, V domains shown) VH: QMQLVQSGAEVKKPGASVKVSCKVSGYTLTELSIHWVRQAPGKGLEWMGGFDPEDGETIYAQKFQGRVTMTGDTSTDTAYLELSSLRSEDTALYYCATGRYTSLATTYGFDYWGQGTLVTVSS VL: EIVMTQSPATLSLSPGERATLSCRASQSVSSYLAWYQQKPGQAPRLLIYGAASRATGIPDRFSGSGSGTDFTLTISRLEPEDFAVYYCQQYDNWPYTFGQGTKLEIK",0.068
7,"E35-scFv LS52W (scFv, V domains shown) VH: QMQLVQSGAEVKKPGASVKVSCKVSGYTLTELSIHWVRQAPGKGLEWMGGFDPEDGETIYAQKFQGRVTMTGDTSTDTAYLELSSLRSEDTALYYCATGRYTSLATTYGFDYWGQGTLVTVSS VL: EIVMTQSPATLSLSPGERATLSCRASQSVSSYLAWYQQKPGQAPRLLIYGAWSRATGIPDRFSGSGSGTDFTLTISRLEPEDFAVYYCQQYDNWPYTFGQGTKLEIK",0.073
8,"E35-scFv LS52R (scFv, V domains shown) VH: QMQLVQSGAEVKKPGASVKVSCKVSGYTLTELSIHWVRQAPGKGLEWMGGFDPEDGETIYAQKFQGRVTMTGDTSTDTAYLELSSLRSEDTALYYCATGRYTSLATTYGFDYWGQGTLVTVSS VL: EIVMTQSPATLSLSPGERATLSCRASQSVSSYLAWYQQKPGQAPRLLIYGARSRATGIPDRFSGSGSGTDFTLTISRLEPEDFAVYYCQQYDNWPYTFGQGTKLEIK",0.089
9,"E35-scFv LS52L (scFv, V domains shown) VH: QMQLVQSGAEVKKPGASVKVSCKVSGYTLTELSIHWVRQAPGKGLEWMGGFDPEDGETIYAQKFQGRVTMTGDTSTDTAYLELSSLRSEDTALYYCATGRYTSLATTYGFDYWGQGTLVTVSS VL: EIVMTQSPATLSLSPGERATLSCRASQSVSSYLAWYQQKPGQAPRLLIYGALSRATGIPDRFSGSGSGTDFTLTISRLEPEDFAVYYCQQYDNWPYTFGQGTKLEIK",0.115
10,"E35-scFv LS52T (scFv, V domains shown) VH: QMQLVQSGAEVKKPGASVKVSCKVSGYTLTELSIHWVRQAPGKGLEWMGGFDPEDGETIYAQKFQGRVTMTGDTSTDTAYLELSSLRSEDTALYYCATGRYTSLATTYGFDYWGQGTLVTVSS VL: EIVMTQSPATLSLSPGERATLSCRASQSVSSYLAWYQQKPGQAPRLLIYGATSRATGIPDRFSGSGSGTDFTLTISRLEPEDFAVYYCQQYDNWPYTFGQGTKLEIK",0.136
11,"E35-scFv LS52Q (scFv, V domains shown) VH: QMQLVQSGAEVKKPGASVKVSCKVSGYTLTELSIHWVRQAPGKGLEWMGGFDPEDGETIYAQKFQGRVTMTGDTSTDTAYLELSSLRSEDTALYYCATGRYTSLATTYGFDYWGQGTLVTVSS VL: EIVMTQSPATLSLSPGERATLSCRASQSVSSYLAWYQQKPGQAPRLLIYGAQSRATGIPDRFSGSGSGTDFTLTISRLEPEDFAVYYCQQYDNWPYTFGQGTKLEIK",0.138
12,"E35-scFv LS52F (scFv, V domains shown) VH: QMQLVQSGAEVKKPGASVKVSCKVSGYTLTELSIHWVRQAPGKGLEWMGGFDPEDGETIYAQKFQGRVTMTGDTSTDTAYLELSSLRSEDTALYYCATGRYTSLATTYGFDYWGQGTLVTVSS VL: EIVMTQSPATLSLSPGERATLSCRASQSVSSYLAWYQQKPGQAPRLLIYGAFSRATGIPDRFSGSGSGTDFTLTISRLEPEDFAVYYCQQYDNWPYTFGQGTKLEIK",0.167
13,"E35-scFv LS52Y (scFv, V domains shown) VH: QMQLVQSGAEVKKPGASVKVSCKVSGYTLTELSIHWVRQAPGKGLEWMGGFDPEDGETIYAQKFQGRVTMTGDTSTDTAYLELSSLRSEDTALYYCATGRYTSLATTYGFDYWGQGTLVTVSS VL: EIVMTQSPATLSLSPGERATLSCRASQSVSSYLAWYQQKPGQAPRLLIYGAYSRATGIPDRFSGSGSGTDFTLTISRLEPEDFAVYYCQQYDNWPYTFGQGTKLEIK",0.181
14,"E35-scFv LS52H (scFv, V domains shown) VH: QMQLVQSGAEVKKPGASVKVSCKVSGYTLTELSIHWVRQAPGKGLEWMGGFDPEDGETIYAQKFQGRVTMTGDTSTDTAYLELSSLRSEDTALYYCATGRYTSLATTYGFDYWGQGTLVTVSS VL: EIVMTQSPATLSLSPGERATLSCRASQSVSSYLAWYQQKPGQAPRLLIYGAHSRATGIPDRFSGSGSGTDFTLTISRLEPEDFAVYYCQQYDNWPYTFGQGTKLEIK",0.192
15,"E35-scFv LS52N (scFv, V domains shown) VH: QMQLVQSGAEVKKPGASVKVSCKVSGYTLTELSIHWVRQAPGKGLEWMGGFDPEDGETIYAQKFQGRVTMTGDTSTDTAYLELSSLRSEDTALYYCATGRYTSLATTYGFDYWGQGTLVTVSS VL: EIVMTQSPATLSLSPGERATLSCRASQSVSSYLAWYQQKPGQAPRLLIYGANSRATGIPDRFSGSGSGTDFTLTISRLEPEDFAVYYCQQYDNWPYTFGQGTKLEIK",0.253
16,"E35-scFv LS52P (scFv, V domains shown) VH: QMQLVQSGAEVKKPGASVKVSCKVSGYTLTELSIHWVRQAPGKGLEWMGGFDPEDGETIYAQKFQGRVTMTGDTSTDTAYLELSSLRSEDTALYYCATGRYTSLATTYGFDYWGQGTLVTVSS VL: EIVMTQSPATLSLSPGERATLSCRASQSVSSYLAWYQQKPGQAPRLLIYGAPSRATGIPDRFSGSGSGTDFTLTISRLEPEDFAVYYCQQYDNWPYTFGQGTKLEIK",1.05
17,"E35-scFv LS52D (scFv, V domains shown) VH: QMQLVQSGAEVKKPGASVKVSCKVSGYTLTELSIHWVRQAPGKGLEWMGGFDPEDGETIYAQKFQGRVTMTGDTSTDTAYLELSSLRSEDTALYYCATGRYTSLATTYGFDYWGQGTLVTVSS VL: EIVMTQSPATLSLSPGERATLSCRASQSVSSYLAWYQQKPGQAPRLLIYGADSRATGIPDRFSGSGSGTDFTLTISRLEPEDFAVYYCQQYDNWPYTFGQGTKLEIK",1.75
18,"E35-scFv LA51G (scFv, V domains shown) VH: QMQLVQSGAEVKKPGASVKVSCKVSGYTLTELSIHWVRQAPGKGLEWMGGFDPEDGETIYAQKFQGRVTMTGDTSTDTAYLELSSLRSEDTALYYCATGRYTSLATTYGFDYWGQGTLVTVSS VL: EIVMTQSPATLSLSPGERATLSCRASQSVSSYLAWYQQKPGQAPRLLIYGGSSRATGIPDRFSGSGSGTDFTLTISRLEPEDFAVYYCQQYDNWPYTFGQGTKLEIK",0.12
19,"E35-scFv LA51R (scFv, V domains shown) VH: QMQLVQSGAEVKKPGASVKVSCKVSGYTLTELSIHWVRQAPGKGLEWMGGFDPEDGETIYAQKFQGRVTMTGDTSTDTAYLELSSLRSEDTALYYCATGRYTSLATTYGFDYWGQGTLVTVSS VL: EIVMTQSPATLSLSPGERATLSCRASQSVSSYLAWYQQKPGQAPRLLIYGRSSRATGIPDRFSGSGSGTDFTLTISRLEPEDFAVYYCQQYDNWPYTFGQGTKLEIK",0.12
20,"E35-scFv LA51H (scFv, V domains shown) VH: QMQLVQSGAEVKKPGASVKVSCKVSGYTLTELSIHWVRQAPGKGLEWMGGFDPEDGETIYAQKFQGRVTMTGDTSTDTAYLELSSLRSEDTALYYCATGRYTSLATTYGFDYWGQGTLVTVSS VL: EIVMTQSPATLSLSPGERATLSCRASQSVSSYLAWYQQKPGQAPRLLIYGHSSRATGIPDRFSGSGSGTDFTLTISRLEPEDFAVYYCQQYDNWPYTFGQGTKLEIK",0.162
